From patent publication US20230398116A1, “Agent for reversing resistance to anticancer drugs” (Y'S AC CO., LTD., priority 2020, published 2023)
Each block holds one molecule with its values, some of them ahead of it.

What was measured:
[1] = system: E0771 cells; experiment: In vivo TNBC transplantation model (E0771 in hIL-26Tg or control mice); design: species or system mouse
Description: E0771 cells (5×10^5) with 50% Matrigel were injected subcutaneously into the flank of hIL-26Tg mice or control mice. Tumor measurements were performed using caliper and volume was calculated using an equation (v=width×width×(length/2)). gefitinib was suspended in H2O with 1% tween (registered trademark) 80 for oral administration (50 mg/kg). Ten days after injection of E0771 cells, the oral administration once a day was performed 5 times a week. As a control, 1% tween (registered trademark) 80 containing H2O without Gefiinib was administered. The monoclonal antibody (mAb) treatment was performed by diluting anti-IL-26 mAb (clone 69-10) (Hatano R et al., MAbs (2019) 1-15, and JP 2009-99492 A) or mouse IgG1 isotype control to 1 mg/ml with sterile PBS, and by intraperitoneal injection of 200 μl (200 μg) once a day twice a week starting on day 10 after E0771 cell injection. Mice were sacrificed until subcutaneous tumor size reached 1600 mm^3. E0771 and HCC70 cells (1×10^5) were cultured for 24 hours in RPMI1640 medium with 10% FCS on Lab-Tek chamber slides (Thermo Fisher Scientific). […] Subcutaneous tumor samples obtained from mice were fixed in 4% paraformaldehyde (Thermo Fisher Scientific) and embedded in OCT compound (Tissue-Tek (registered trademark), Sakura Finetek, Japan). Cells and slides were immunostained with each antibody and observed using a Zeiss inverted microscope and Axiovision 2.0 program (Carl Zeiss, Germany). The fluorescence intensity was quantified with Image-J software (NIH). The images were captured using a 100×400× objective.

[2] = system: endoplasmic reticulum stress signaling in MDA-MB-468 cells; experiment: qRT-PCR of endoplasmic reticulum stress markers in MDA-MB-468 cells; format: cell-based, human; conditions: 6 hours
Description: E0771 cells, HCC70 cells, and MDA-MB-468 cells were cultured in RPMI1640 medium containing 10% FCS on a 6-well plate (Corning), and then stimulated with IL-26 (30 ng/ml) in the presence or absence of gefitinib for 3, 6, or 12 hours. The cells were harvested and total RNA was extracted. cDNA was synthesized using PrimeScript II first-strand cDNA synthesis kit (TaKaRa Bio, Japan) and oligo (dT) primers. The mRNA levels were measured by 7500 System SDS software (Applied Biosystems, Foster City, CA) and normalized to hypoxanthine phosphoribosyltransferase expression levels.

[3] = system: phosphorylation of AKT, JNK, STAT3 and EphA3 in E0771 cells; experiment: Western blotting of phosphorylation in E0771 cells; format: cell-based, mouse
Description: To analyze the phosphorylation of AKT, ERK, p38, JNK, STAT3, and EphA3, E0771 cells and HCC70 cells in 100 mm dishes were stimulated with IL-26 ([…]) and an anti-EphA3 polyclonal antibody (pAb) (10 μg/ml) for a specified period of time. After stimulation, the cells were lysed with a 2% protease inhibitor mixture (Sigma-Aldrich) and/or RIPA buffer added with 1×PhosSTOP (Roche Diagnostics, Tokyo, Japan), and a lysate was separated in a reduced state by SDS-PAGE (15 μg/lane). Immunoblots were performed using an anti-phosphorylated AKT antibody, an anti-phosphorylated ERK antibody, an anti-phosphorylated p38 antibody, an anti-phosphorylated JNK antibody, an anti-phosphorylated STAT3 antibody, and an anti-phosphorylated EphA3 antibody that recognize both human and mouse antigens. For reprobing, the membrane was immersed in a stripping buffer. After the stripping procedure, the membranes were re-probed with anti-pan-AKT, anti-pan-ERK, anti-pan-p38, anti-pan-JNK, anti-pan-STAT3, and anti-pan-EphA3 antibodies recognizing both human and mouse antigens. Images were taken using a C-Digit Blot scanner (MS Techno Systems, Inc., Japan).

[4] = molecular target: T1, EphA3/IL-26 interaction (Homo sapiens, UniProt Q9NPH9); experiment: Immunofluorescence of rhIL-26-Alexa 488 and cell surface EphA3 on E0771 cells; format: cell-based, mouse
T1 construct: purchased R&D Systems; host or cells: IL-26 was purchased; EphA3 is endogenous on E0771 cells
T1 sequence (Q9NPH9 22-171): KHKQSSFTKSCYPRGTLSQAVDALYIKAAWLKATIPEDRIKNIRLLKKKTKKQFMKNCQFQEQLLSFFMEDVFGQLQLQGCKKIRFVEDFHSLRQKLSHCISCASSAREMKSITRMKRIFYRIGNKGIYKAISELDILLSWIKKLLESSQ
Description: E0771 and HCC70 cells (1×10^5) were cultured for 24 hours in RPMI1640 medium with 10% FCS on Lab-Tek chamber slides (Thermo Fisher Scientific). The cultured cells were stimulated with Alexa Fluor 488 labeled IL-26 (30 ng/ml) in the presence or absence of recombinant human and mouse EphA3-Ig for 1 hour. HCC70 cells were stimulated with IL-26 (30 ng/ml) in the presence or absence of gefitinib (40 μM), a signal inhibitor, and a neutralizing antibody for 24 hours. Subcutaneous tumor samples obtained from mice were fixed in 4% paraformaldehyde (Thermo Fisher Scientific) and embedded in OCT compound (Tissue-Tek (registered trademark), Sakura Finetek, Japan). Cells and slides were immunostained with each antibody and observed using a Zeiss inverted microscope and Axiovision 2.0 program (Carl Zeiss, Germany). The fluorescence intensity was quantified with Image-J software (NIH). The images were captured using a 100×400× objective.

[5] = MDA-MB-468, IL-26 30 ng/ml, gefitinib 20 μM

Molecule: COc1cc2ncnc(Nc3ccc(F)c(Cl)c3)c2cc1OCCCN1CCOCC1 [gefitinib, Gefitinib, reference compound]
number of Ly6G+ granulocytes infiltrating TME ([1]; gefitinib-treated WT and hIL-26Tg mice compared to vehicle-treated, FIG. 40): significantly increased
phosphorylation of AKT in tumor cells ([1]; gefitinib-treated WT mice, tumor resected 14 days after inoculation, FIG. 41): strongly suppressed
phosphorylation of JNK in tumor cells ([1]; gefitinib-treated WT mice, tumor resected 14 days after inoculation, FIG. 42): strongly suppressed
tumor growth in hIL-26Tg mice ([1]; hIL-26Tg mice, gefitinib 50 mg/kg oral gavage, FIG. 35): tumor suppression by gefitinib was significantly inhibited
tumor growth in control mice ([1]; littermate control (WT) mice, gefitinib 50 mg/kg oral gavage once a day, five times a week, FIG. 35): suppressed
mRNA expression levels of DDIT3, ATF3 and ATF4, gefitinib treatment ([2]; MDA-MB-468, gefitinib 20 μM, FIG. 29): significantly increased
mRNA expression levels of IL-6, IL-8 and CXCL2, gefitinib treatment ([2]; MDA-MB-468, gefitinib 20 μM, FIG. 34): significantly increased
AKT and JNK phosphorylation under gefitinib ([3]; E0771, gefitinib 20 μM, FIG. 24B): suppression of AKT and JNK phosphorylation

colocalization of exogenous IL-26 with cell surface EphA3 ([4]; E0771, FIGS. 17 and 18): colocalized with the cell surface EphA3
B1: IL-26: recombinant human IL-26 dimers for cell stimulation, R&D Systems (protein)
chain: T1 sequence (Q9NPH9 22-171)
mRNA expression levels of DDIT3, ATF3 and ATF4, IL-26 with gefitinib [2, 5]: significantly decreased
mRNA expression levels of IL-6, IL-8 and CXCL2, IL-26 with gefitinib [2, 5]: significantly reduced
phosphorylation of EphA3 ([3]; E0771, IL-26 30 ng/ml, 0 to 60 minutes, FIG. 24A): induced dephosphorylation of EphA3
AKT and JNK phosphorylation ([3]; E0771, IL-26 30 ng/ml, FIG. 5E): activated AKT and JNK phosphorylation
STAT3 activation ([3]; E0771, IL-26 30 ng/ml, FIG. 5E): did not activate STAT3

B2: 69-10: mouse anti-human IL-26 monoclonal antibody, clone 69-10, from deposited hybridoma (antibody, V domains shown)
VH: QVTLKESGPGILKPSQTLSLTCSFSGFSLSTSGMGVGWIRQPSGKGLEWLAHIWWDDDKYYNPSLKSQLTISKDTSRNQVFLKITSVDTADTATYYCVRGGITATHYYAMDYWGQGTSVTVSS
VL: DIQMTQSPASQSASLGESVTISCLASQTIGTWLSWYQQKPGKSPQLLIYAATSLADGVPSRFSGSGSGTKFSFKISSLQAEDFVSYYCQQLYSSPWTFGGGTKLEIK
inhibition of colocalization of IL-26 with EphA3 (EphA3/IL-26 interaction) ([4]; E0771, antibodies 10 μg/ml, FIGS. 19 and 20): significantly inhibited
tumor growth, anti-IL-26 mAb and gefitinib ([1]; hIL-26Tg mice, clone 69-10 200 μg/dose i.p. twice a week with gefitinib, compared to gefitinib alone, FIG. 36): significantly reduced
tumor growth, anti-IL-26 mAb alone ([1]; hIL-26Tg mice, not illustrated): no effect on tumor growth
